Results on one substance are retold here after paper PMC516168.

In this test the target is Mc-VHA-a fused to YFP (M. crystallinum). Kind of test: FRET or BRET; in vivo FRET (CFP donor, YFP acceptor, fused to C-termini) in co-transformed A. thaliana mesophyll protoplasts; excitation 458 nm; acceptor photobleaching at 514 nm; confocal microscopy. (In general: In BRET a luciferase serves as donor, and the signal depends on an acceptor being close.)

Mc-VHA-c fused to CFP (natural protein): the FRET efficiency stood at 0.45.
